Measurements: US20030125311A1, “Compounds capable of binding with the cytoskeleton” (priority 2002, published 2003)

B1: Proteinase K: hydrolytic enzyme (Merck) used to treat cytosol (protein, UniProt P06873 106-384, looked up)
Proteinase K: AAQTNAPWGLARISSTSPGTSTYYYDESAGQGSCVYVIDTGIEASHPEFEGRAQMVKTYYYSSRDGNGHGTHCAGTVGSRTYGVAKKTQLFGVKVLDDNGSGQYSTIIAGMDFVASDKNNRNCPKGVVASLSLGGGYSSSVNSAAARLQSSGVMVAVAAGNNNADARNYSPASEPSVCTVGASDRYDRRSSFSNYGSVLDIFGPGTSILSTWIGGSTRSISGTSMATPHVAGLAAYLMTLGKTTAASACRYIADTANKGDLSNIPFGTVNLLAYNNYQA
B2: Ribonuclease A: hydrolytic enzyme (Sigma-Aldrich) used to treat cytosol (protein, UniProt P61823 27-150, looked up)
Ribonuclease pancreatic: KETAAAKFERQHMDSSTSAASSSNYCNQMMKSRNLTKDRCKPVNTFVHESLADVQAVCSQKNVACKNGQTNCYQSYSTMSITDCRETGSSKYPNCAYKTTQANKHIIVACEGNPYVPVHFDASV

Test system: binding sites of PREG [3H] in brain cytosol
Test: Effects of hydrolytic enzymes on the binding of PREG [3H] in cytosol
Design: species or system rat
Conditions: for % of Control (binding of PREG [3H]): cytosol incubated with enzyme at 37° C. for 30 min, mean±standard error, n=3
Experimental: Proteinase K (Merck, Darmstadt, Germany) and Pronase® are dissolved at 1 mg/ml in TNM buffer containing 10 mM of Tris, 0.1M of NaCl, 3 mM of MgCl2 (pH 7.4). Deoxyribonuclease I and ribonuclease A are products of Sigma-Aldrich and are respectively adjusted to 100 IU/ml and 5 IU/ml. Phospholipase A2 (Roche Molecular Biochemicals) is diluted to 20 IU/ml in TNM.
1 ml of brain cytosol is incubated with 0.2 ml of an enzyme solution at 37° C. for 30 min. The binding activity is studied of samples (0.2 ml) which had undergone the enzyme treatment or control samples diluted with buffer only.
To study the effects of hydrolytic enzymes on the binding of PREG [^3H], samples of 1 ml of cytosol incubated with 0.2 ml of an enzyme solution at 37° C. for 30 min were used. The results obtained, expressed as % of the control incubation (cytosol diluted in a buffer) are reported in Table 1 (mean±standard error, n=3).

| % of Control (binding of PREG [3H]) | binding sites of PREG [3H] destroyed (enzyme treatment of cytosol) | effect on binding sites of PREG [3H] (in words) (enzyme treatment of cytosol) | Molecule |
| --- | --- | --- | --- |
| 42.4 ± 7.5% | 60% | – | B1 |
| 82.4 ± 9.2% | – | no significant effect | B2 |
